Test results reported in publication PMC11931385, “Structural and functional analysis of cancer-associated missense variants in the retinoblastoma protein pocket domain” (The Journal of Biological Chemistry, 2025).
Changes are numbered by the printed parent chain. Numbers in names are those of the source. No end group written: not given here. TMR = tetramethyl rhodamine dye

What was measured:
Assay in all cases: fluorescence polarisation; 37 °C, after the 25 °C reading ramped over 7 min to 37 °C and 2 min incubation; unlabeled Rb^P against 1.5 nM TMR-E2F1^TD or 7.5 nM TMR-E7^LxCxE; 25 mM Tris pH 8.0, 200 mM NaCl, 1 mM DTT, 0.1% Tween-20; apparent Kd
Conditions in all cases: both partners purified
[1] = target: T1, retinoblastoma protein pocket domain (Rb^P), wild type (human, UniProt P06400 380-788)
T1 construct: also called WT Rb^P; WT
T1 sequence (looked up): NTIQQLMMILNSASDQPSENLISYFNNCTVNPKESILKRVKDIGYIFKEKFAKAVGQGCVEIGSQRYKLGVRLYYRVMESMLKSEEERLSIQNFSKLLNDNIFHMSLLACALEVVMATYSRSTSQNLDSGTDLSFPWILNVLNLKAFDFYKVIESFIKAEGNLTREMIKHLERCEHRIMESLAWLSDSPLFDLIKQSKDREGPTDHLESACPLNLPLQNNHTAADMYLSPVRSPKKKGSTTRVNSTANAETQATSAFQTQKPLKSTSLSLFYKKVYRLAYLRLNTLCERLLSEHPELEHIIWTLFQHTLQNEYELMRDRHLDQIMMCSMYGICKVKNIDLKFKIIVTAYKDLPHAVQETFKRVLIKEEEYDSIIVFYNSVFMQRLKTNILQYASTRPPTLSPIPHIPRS

Rb^P R451S = target: T2, Rb^P R451S (human, UniProt P06400 380-788, R451S)
T2 construct: also called variant 7
T2 sequence (looked up): T1 sequence (looked up) with R72S

Rb^P R741S = target: T3, Rb^P R741S (human, UniProt P06400 380-788, R741S)
T3 construct: also called variant 70
T3 sequence (looked up): T1 sequence (looked up) with R362S

Rb^P A490S = target: T4, Rb^P A490S (human, UniProt P06400 380-788, A490S)
T4 construct: also called variant 15
T4 sequence (looked up): T1 sequence (looked up) with A111S

Rb^P T738I = target: T5, Rb^P T738I (human, UniProt P06400 380-788, T738I)
T5 construct: also called variant 67
T5 sequence (looked up): T1 sequence (looked up) with T359I

B1: TMR-E2F1^TD, peptide of the E2F1 transactivation domain (peptide)
peptide: {TMR}-GEGIRDLFDCDFGDLTPLD
notes: also called E2F^TD; source: synthetic peptide, bought: GenScript
- Kd [1]: 22 nM
- Kd (Rb^P R451S): 44 nM
- Kd (Rb^P R741S): 84 nM
- Kd (Rb^P A490S): 29 nM
- Kd (Rb^P T738I): 179 nM

B2: TMR-E7^LxCxE, LxCxE peptide of the E7 oncoprotein from HPV (peptide)
peptide: DLYCYEQLN
modifications: also: TMR label, position not given here
notes: source: synthetic peptide, bought: GenScript
- Kd [1]: 12 nM
- Kd (Rb^P R451S): 17 nM
- Kd (Rb^P R741S): 46 nM
- Kd (Rb^P A490S): 15 nM
- Kd (Rb^P T738I): 151 nM
